The data set concerns MS2 coat protein. In words: apparent KD of MS2 coat protein; designed switch direction (-1 OFF switch, 1 ON switch): 1; higher = weaker reporter binding. The gist of the method: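 Each step of the titration lasted 0.8–1.5 h at the lowest concentration and 10–20 min at the highest. The protein, SNAP-549-labelled MS2 coat protein, went from 0.7 or 1.5 nM doubling to 3 µM over RNA switches transcribed on Illumina chips by stalled E. coli RNA polymerase. Normalised cluster fluorescence was curve-fitted, and the per-design median over clusters is given as apparent KD.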

Where [1] appears, read: input ligand: microRNA oligo, concentration not stated.
Setting [2] is: Eterna round: R95, input ligand: FMN 200 uM.
Where [3] appears, read: Eterna round: R95, input ligand: microRNA oligo, concentration not stated.
Setting [4] is: Eterna round: R95, input ligand: none.

For “CGCCAGAGAGCAGGAUAUGGGCCACGGCCUAAGGGCUGUGGACUCACAUGAGGAUCACCCAUGUCCCAGAAGGGCUCCUGGCUA [Usarbebi] (Eterna round: R96, puzzle: Same State NG 2)”, the “apparent KD of MS2 coat protein” value stood at 18.1 nM (input ligand: FMN 200 uM), 128 nM under setting [1] and 174 nM (input ligand: none).

For the sequence “CGCUGCGUUUCAUAGGAUAUGUGGUUUUGAACAUGAGGAUCACCCAUGUAGACGUCAAUGGCUCCACAGAAGGGUGACACUAGUG [Aredis] (puzzle: Same State 2)”, the “apparent KD of MS2 coat protein” value by setting is: under setting [2], 261 nM; under setting [3], 571 nM; under setting [4], 908 nM.

Consider “CGGAAACGUCAAGGAUAUGCUACCGUUUCGGUAGCAGAAGGUGAUCACAUGAGGAUCACCCAUGUAUGCAUGCGUGAGCGUGCU [JL SSNG1 3.56] (Eterna round: R96, puzzle: Same State NG 1)”, for which the “apparent KD of MS2 coat protein” value (input ligand: FMN 200 uM) was determined as 206 nM, the “apparent KD of MS2 coat protein” value under setting [1] worked out at 187 nM and the “apparent KD of MS2 coat protein” value (input ligand: none) was 177 nM.

For “CGGCGCUGUCGAGAGGAUAUGCGGUGAUGGACAUGAGGAUCACCCAUGUUAGCGAUAGCAUCACGGUAGAAGGCUCUACGGCCUG [Soteed Omei mod 22] (puzzle: Same State 2)”, under setting [3], the “apparent KD of MS2 coat protein” value stood at 52.3 nM.

For “CGGGUACAUGAGGAUCACCCAUGUGGAAGAGAUGCAGGAUAUGUGGGAAAAGGGAAUGUAACAGAAGGGCAAGGAG [JR_SS!_Sub016] (puzzle: Same State 1)”, the “apparent KD of MS2 coat protein” value was determined as 53.4 nM under setting [2], 64.1 nM under setting [3] and 144 nM under setting [4].

Consider “CGGGUACAUGAGGAUCACCCAUGUGGGAGGGAUGCAGGAUAUGUGGGAGGAGGGUAUGAAACAGAAGGGCAAGGAG [JR_SS!_Sub012] (puzzle: Same State 1)”, for which the “apparent KD of MS2 coat protein” value under setting [2] was found to be 46.7 nM, the “apparent KD of MS2 coat protein” value under setting [3] came out at 48.9 nM and the “apparent KD of MS2 coat protein” value under setting [4] worked out at 65.5 nM.

“CGGGUGAUCGUAGGAUAUCUAGGAUAUGAACGAGGAUCACCCGAGCAGCAUCAGCGCAUCAGAGGAGAGAAGGACGAUCAUGCG [pwkr ssNG2 2F5 2FMN.7] (Eterna round: R96, puzzle: Same State NG 2)”: the “apparent KD of MS2 coat protein” value amounted to 326 nM (input ligand: FMN 200 uM), 12.9 nM under setting [1] and 59.1 nM (input ligand: none).

With “CGUAGGUAGCUGGAGGAUAUUCGAGUGGUAACAUGAGGAUCACCCAUGUGGAGAGAGGAACAUGAGGAGAAGGCUAGCUGCCUGC [JL-ss2-3.19 JL mod] (puzzle: Same State 2)”, the “apparent KD of MS2 coat protein” value was found to be 8.36 nM under setting [2], 21.7 nM under setting [3] and 16.7 nM under setting [4].

Turning to “CGUCCAGCCUGAGCUGGACAAAAGCAUGUACAUGAGGAUCACCCAUGUUCAUGUACAAGCUUUUUGCUCGUCUUACC [salish99_208a_r3_094x] (Eterna round: R96, puzzle: Sensor for hsa-mir-208a)”, the “apparent KD of MS2 coat protein” value came to 760 nM (input ligand: FMN 200 uM), 14.3 nM under setting [1] and 752 nM (input ligand: none).

As to “CGUCCAGCCUGAGCUGGACAAAAGCAUGUACAUGAGGAUCACCCAUGUUCAUGUACAAGCUUUUUGCUCGUCUUACC [salish99_208a_r3_094x] (puzzle: Sensor for hsa-mir-208a)”, the “apparent KD of MS2 coat protein” value is 638 nM under setting [2], 15.9 nM under setting [3] and 1010 nM under setting [4].

Regarding “CGUCCGGCCUGUGCUGGCCGGUGGCUUGUACAUGAGGAUCACCCAUGUUCUUGUGCUGGCGUUUUGCUCGUCUUGUG [salish99_mir208a_r3_020] (puzzle: Sensor for hsa-mir-208a)”, the “apparent KD of MS2 coat protein” value is, setting by setting: under setting [2], 28.2 nM; under setting [3], 20.7 nM; under setting [4], 32.5 nM.

As for “CUAAAACAUGAGGAUCACCCAUGUCAACAAAGUCGAGGAUAUGGGCAAAUAAAAUAAGAACCAGAAGGCGAAUAAA [salish99_SS1_r3_015] (puzzle: Same State 1)”, the “apparent KD of MS2 coat protein” value is 42.8 nM under setting [2], 518 nM under setting [3] and 518 nM under setting [4].

Source of the values: the supplement of paper PMC9170038.
